Substrate in the series: CC(C)=CCC/C(C)=C/COP(=O)(O)OP(=O)(O)O
The experiment in a line: purified protein, by the assay type. As to conditions: other: purified wildtype RhNUDX1, this study; pH 8.0.

B1: Rosa hybrida (Rosa hybrid cultivar) RhNUDX1, GPP phosphohydrolase, wildtype, UniProt JQ820249, SEQ ID NO: 14 (Rosa hybrid cultivar) (protein)
chain: MGNETVVVAETAGSIKVAVVVCLLRGQNVLLGRRRSSLGDSTFSLPSGHLEFGESFEECAARELKEETDLDIGKIELLTVTNNLFLDEAKPSQYVAVFMRAVLADPRQEPQNIEPEFCDGWGWYEWDNLPKPLFWPLDNVVQDGFNPFPT
B1: the Km (as a rule, the substrate concentration at which the rate is half of its maximum) was 46.4 ± 4.4 µM; the kcat – broadly, the maximal rate divided by the concentration of active sites – turned out to be 0.36 s⁻¹; the kcat/Km – broadly, the turnover number divided by the Michaelis constant – was determined as 7747 ± 1736 M⁻¹ s⁻¹.

Source of the values: patent US20250188479A1.
